Bounds are passed on as bounds.

Four molecules from US20240199696A1, “AGENTS FOR MANUFACTURE OF CO-ASSEMBLING PEPTIDES” (University of Florida Research Foundation, Incorporated, priority 2021, published 2024) can be followed below.

The labels stand for the following.
B3: mCATCH(+) peptide, Ac-QQKPKPKPKQQ-Am (peptide)
peptide: Ac-QQKPKPKPKQQ-NH2
notes: Mutant of CATCH(+) with proline in place of the phenylalanine residues; also called mutant CATCH(4+); mCATCH (4+)

In data set [1] the target is CATCH(+) peptide, Ac-…-Am. The data set is described as follows: fluorescence microscopy of binary mixtures (FIG. 33A: 0.75 µM CATCH(+)).
Data set [2] deals with the molecule itself. Description: ThT fluorimetry, TEM, circular dichroism and fluorescence microscopy of the peptide alone. (In general: Circular dichroism is the unequal absorption of left and right circularly polarised light.)
Data set [3] concerns the target T1, mCATCH(-) peptide, Ac-EQEPEPEPEQE-Am.
T1 construct: Mutant of CATCH(-) with proline in place of the phenylalanine residues
T1 peptide: Ac-EQEPEPEPEQE-NH2
Description: ThT fluorimetry, equimolar mixture in 1xPBS. How it is done: (§1) Thioflavin T (ThT) Assay. A ThT stock solution containing 0.8 mg/mL of thioflavin T (Acros) in 1× phosphate-buffered saline (PBS) (137 mM NaCl, 2.7 mM KCl, 10 mM Na₂HPO₄ and 1.8 mM KH₂PO₄, pH 7.4) was filtered through a 0.22 μm syringe filter (Millex), and further diluted 1:10 with 1×PBS to create a working solution. Peptide samples were mixed with the ThT working solution at a 1:10 (v/v) ratio, added to a black 96-well plate (Corning), and analyzed with a Molecular Devices SpectraMax M3 spectrophotometer (excitation 450, emission 482 nm). All samples were run in triplicate, with the mean and standard deviation of these samples reported.

Data set [4] deals with B3. Description: ThT fluorimetry, equimolar mixture in 1xPBS. The procedure: as §1
Data set [5] addresses T1, mCATCH(-) peptide, Ac-EQEPEPEPEQE-Am. Description: ThT fluorimetry, kinetic analysis.

Take “CATCH(-)GFP, recombinant fusion of CATCH(-) and superfolder green fluorescent protein”: in data set [1], the concentration below which only diffuse fluorescence (no microparticles) was observed is under 7.5 µM.

B1: CATCH(+) peptide, Ac-QQKFKFKFKQQ-Am (peptide)
peptide: Ac-QQKFKFKFKQQ-NH2
notes: Synthetic cationic variant of Q11; also called CATCH (4+); CATCH(4+)
Consider B1, for which the binding result in data set [2] and in data set [3] was “no binding” in each case.

B2: CATCH(-) peptide, Ac-EQEFEFEFEQE-Am (peptide)
peptide: Ac-EQEFEFEFEQE-NH2
notes: Synthetic anionic variant of Q11; also called CATCH (6-); CATCH(6-)
For the molecule B2, the binding result in data set [2] and in data set [4] was “no binding” each time. Consider B3, for which the binding result in data set [5] was “no binding”.
